In patent US20250296971A1, “GASTRIC INHIBITORY PEPTIDE RECEPTOR LIGANDS” (priority 2021, published 2025):
*1 amine or outer side, *2 acyl side, *3 side chain or, on linkers, in order; H or OH if unused. Bridges are numbered along the chain shown (N, C = ends). Primed or numbered codes have the meaning given here. [ ]: non-standard residue; d: D form. The star is where a group is joined. 3‑methylbenzoyl = 3-methylbenzoyl group bridging Dap and AET, O=C(c1cccc(C[*:3])c1)[*:2]; Ttds = 1,13-diamino-4,7,10-trioxatridecan-succinamic acid, NCCCOCCOCCOCCCNC(=O)CCC(=O)*; dE(AGLU) = D-glutamic acid bearing 1-amino-1-deoxy-D-glucitol; Pro(trans-4-NH2) = O=C([C@@H]1C[C@@H](N[*:3])CN1[*:1])[*:2]; DO3AM = NC(=O)CN1CCN(CC(N)=O)CCN(CC(=O)*)CCN(CC(N)=O)CC1; DOTA = O=C(O)CN1CCN(CC(=O)O)CCN(CC(=O)*)CCN(CC(=O)O)CC1; Trp(5-Cl) = N[C@@H](Cc1c[nH]c2ccc(Cl)cc12)C(=O)O; Pyridine(2,6-diCH2) = c1cc(C[*:1])nc(C[*:2])c1; Trp(5-F) = N[C@@H](Cc1c[nH]c2ccc(F)cc12)C(=O)O; Trp(7-F) = N[C@@H](Cc1c[nH]c2c(F)cccc12)C(=O)O; 2Lut″ = 2,6-lutidylidene linking two thiols; APAc = 4-amino-1-carboxymethylpiperidine; 1Nal = N[C@@H](Cc1cccc2ccccc12)C(=O)O; Glutaryl = O=C(CCCC(=O)[*:2])[*:1]; AGLU = 1-amino-1-deoxy-D-glucitol; mli = maleimide bridging scaffold; Hyp = O=C(O)[C@@H]1C[C@@H](O)CN1; Cysteamide = C(CS[*:3])N[*:1]; Tle = CC(C)(C)[C@H](N)C(=O)O; αMeK = C[C@](N)(CCCCN)C(=O)O; hCys = N[C@@H](CCS)C(=O)O; Thz = O=C(O)[C@@H]1CSCN1; Api = NC1(C(=O)O)CCNCC1; Thp = NC1(C(=O)O)CCOCC1; Dap = NC[C@H](N)C(=O)O; Aib = CC(C)(N)C(=O)O

B1: Ac-Asp-Hyw-5Clw-Hyp-Glu-leu-[Cys(2Lut)-Thp-Leu-Ile-Cys]-NH2 (peptide)
peptide: Ac-DX[Trp(5-Cl)][Hyp]E[dL]C[Thp]LIC-NH2
modifications: linker 7-11 via Pyridine(2,6-diCH2); not fully specified (residue 2); printed as Ac-Asp-Hyw-5Clw-Hyp-Glu-leu-[Cys(2Lut)-Thp-Leu-Ile-Cys]-NH2
B2: Ac-Asp-Trp-5Clw-Hyp-Glu-leu-[Cys(2Lut)-Thp-Trp-Ile-Cys]-NH2 (peptide)
peptide: Ac-DW[Trp(5-Cl)][Hyp]E[dL]C[Thp]WIC-NH2
modifications: linker 7-11 via Pyridine(2,6-diCH2)
SMILES: CC[C@H](C)[C@@H]1NC(=O)[C@H](Cc2c[nH]c3ccccc23)NC(=O)C2(CCOCC2)NC(=O)[C@@H](NC(=O)[C@@H](CC(C)C)NC(=O)[C@H](CCC(=O)O)NC(=O)[C@@H]2C[C@@H](O)CN2C(=O)[C@H](Cc2c[nH]c3ccc(Cl)cc23)NC(=O)[C@H](Cc2c[nH]c3ccccc23)NC(=O)[C@H](CC(=O)O)NC(C)=O)CSCc2cccc(n2)CSC[C@@H](C(N)=O)NC1=O
B3: Ac-Asp-Trp-5Clw-Hyp-Glu-leu-[Cys(2Lut)-Thp-Glu-Ile-Cys]-NH2 (peptide)
peptide: Ac-DW[Trp(5-Cl)][Hyp]E[dL]C[Thp]EIC-NH2
modifications: linker 7-11 via Pyridine(2,6-diCH2)
SMILES: CC[C@H](C)[C@@H]1NC(=O)[C@H](CCC(=O)O)NC(=O)C2(CCOCC2)NC(=O)[C@@H](NC(=O)[C@@H](CC(C)C)NC(=O)[C@H](CCC(=O)O)NC(=O)[C@@H]2C[C@@H](O)CN2C(=O)[C@H](Cc2c[nH]c3ccc(Cl)cc23)NC(=O)[C@H](Cc2c[nH]c3ccccc23)NC(=O)[C@H](CC(=O)O)NC(C)=O)CSCc2cccc(n2)CSC[C@@H](C(N)=O)NC1=O
B4: Ac-Asp-1Ni-5Clw-Hyp-Glu-leu-[Cys(2Lut)-Thp-Leu-Ile-Cys]-NH2 (peptide)
peptide: Ac-D[1Nal][Trp(5-Cl)][Hyp]E[dL]C[Thp]LIC-NH2
modifications: linker 7-11 via Pyridine(2,6-diCH2)
SMILES: CC[C@H](C)[C@@H]1NC(=O)[C@H](CC(C)C)NC(=O)C2(CCOCC2)NC(=O)[C@@H](NC(=O)[C@@H](CC(C)C)NC(=O)[C@H](CCC(=O)O)NC(=O)[C@@H]2C[C@@H](O)CN2C(=O)[C@H](Cc2c[nH]c3ccc(Cl)cc23)NC(=O)[C@H](Cc2cccc3ccccc23)NC(=O)[C@H](CC(=O)O)NC(C)=O)CSCc2cccc(n2)CSC[C@@H](C(N)=O)NC1=O
B5: Ac-Asp-Trp-5Clw-Hyp-Glu-leu-[Cys(2Lut)-Thp-Phe-Ile-Cys]-NH2 (peptide)
peptide: Ac-DW[Trp(5-Cl)][Hyp]E[dL]C[Thp]FIC-NH2
modifications: linker 7-11 via Pyridine(2,6-diCH2)
SMILES: CC[C@H](C)[C@@H]1NC(=O)[C@H](Cc2ccccc2)NC(=O)C2(CCOCC2)NC(=O)[C@@H](NC(=O)[C@@H](CC(C)C)NC(=O)[C@H](CCC(=O)O)NC(=O)[C@@H]2C[C@@H](O)CN2C(=O)[C@H](Cc2c[nH]c3ccc(Cl)cc23)NC(=O)[C@H](Cc2c[nH]c3ccccc23)NC(=O)[C@H](CC(=O)O)NC(C)=O)CSCc2cccc(n2)CSC[C@@H](C(N)=O)NC1=O
B6: Ac-Asp-Trp-5Clw-Hyp-Glu-leu-[Cys(2Lut)-Thp-Leu-Leu-Cys]-NH2 (peptide)
peptide: Ac-DW[Trp(5-Cl)][Hyp]E[dL]C[Thp]LLC-NH2
modifications: linker 7-11 via Pyridine(2,6-diCH2)
SMILES: CC(=O)N[C@@H](CC(=O)O)C(=O)N[C@@H](Cc1c[nH]c2ccccc12)C(=O)N[C@@H](Cc1c[nH]c2ccc(Cl)cc12)C(=O)N1C[C@H](O)C[C@H]1C(=O)N[C@@H](CCC(=O)O)C(=O)N[C@H](CC(C)C)C(=O)N[C@H]1CSCc2cccc(n2)CSC[C@@H](C(N)=O)NC(=O)[C@H](CC(C)C)NC(=O)[C@H](CC(C)C)NC(=O)C2(CCOCC2)NC1=O
B7: Ac-Asp-Trp-5Clw-Hyp-Glu-leu-[Cys(2Lut)-Thp-Leu-Tle-Cys]-NH2 (peptide)
peptide: Ac-DW[Trp(5-Cl)][Hyp]E[dL]C[Thp]L[Tle]C-NH2
modifications: linker 7-11 via Pyridine(2,6-diCH2)
SMILES: CC(=O)N[C@@H](CC(=O)O)C(=O)N[C@@H](Cc1c[nH]c2ccccc12)C(=O)N[C@@H](Cc1c[nH]c2ccc(Cl)cc12)C(=O)N1C[C@H](O)C[C@H]1C(=O)N[C@@H](CCC(=O)O)C(=O)N[C@H](CC(C)C)C(=O)N[C@H]1CSCc2cccc(n2)CSC[C@@H](C(N)=O)NC(=O)[C@H](C(C)(C)C)NC(=O)[C@H](CC(C)C)NC(=O)C2(CCOCC2)NC1=O
B8: Ac-Asp-Trp-5Clw-Hyp-Glu-leu-[Cys(2Lut)-Thp-Arg-Ile-Cys]-NH2 (peptide)
peptide: Ac-DW[Trp(5-Cl)][Hyp]E[dL]C[Thp]RIC-NH2
modifications: linker 7-11 via Pyridine(2,6-diCH2)
SMILES: CC[C@H](C)[C@@H]1NC(=O)[C@H](CCCNC(=N)N)NC(=O)C2(CCOCC2)NC(=O)[C@@H](NC(=O)[C@@H](CC(C)C)NC(=O)[C@H](CCC(=O)O)NC(=O)[C@@H]2C[C@@H](O)CN2C(=O)[C@H](Cc2c[nH]c3ccc(Cl)cc23)NC(=O)[C@H](Cc2c[nH]c3ccccc23)NC(=O)[C@H](CC(=O)O)NC(C)=O)CSCc2cccc(n2)CSC[C@@H](C(N)=O)NC1=O
B9: DOTA-Ttds-Asp-Trp-5Clw-Pro-Glu-leu-[Dap(3MeBz)-Aib-Leu-Ile-AET] (peptide)
peptide: {DOTA-Ttds}-DW[Trp(5-Cl)]PE[dL][Dap][Aib]LI[Cysteamide]
modifications: linker (positions not given here) via 3‑methylbenzoyl; not fully specified (bridges); printed as DOTA-Ttds-Asp-Trp-5Clw-Pro-Glu-leu-[Dap(3MeBz)-Aib-Leu-Ile-AET]
B10: Ac-Asp-Trp-5Clw-Hyp-Glu-leu-[Cys(2Lut)-Thp-Ser-Ile-Cys]-NH2 (peptide)
peptide: Ac-DW[Trp(5-Cl)][Hyp]E[dL]C[Thp]SIC-NH2
modifications: linker 7-11 via Pyridine(2,6-diCH2)
SMILES: CC[C@H](C)[C@@H]1NC(=O)[C@H](CO)NC(=O)C2(CCOCC2)NC(=O)[C@@H](NC(=O)[C@@H](CC(C)C)NC(=O)[C@H](CCC(=O)O)NC(=O)[C@@H]2C[C@@H](O)CN2C(=O)[C@H](Cc2c[nH]c3ccc(Cl)cc23)NC(=O)[C@H](Cc2c[nH]c3ccccc23)NC(=O)[C@H](CC(=O)O)NC(C)=O)CSCc2cccc(n2)CSC[C@@H](C(N)=O)NC1=O
B11: Ac-Asp-Trp-5Clw-Hyp-Glu-leu-[Cys(2Lut)-Thp-Ile-Ile-Cys]-NH2 (peptide)
peptide: Ac-DW[Trp(5-Cl)][Hyp]E[dL]C[Thp]IIC-NH2
modifications: linker 7-11 via Pyridine(2,6-diCH2)
SMILES: CC[C@H](C)[C@@H]1NC(=O)[C@H]([C@@H](C)CC)NC(=O)C2(CCOCC2)NC(=O)[C@@H](NC(=O)[C@@H](CC(C)C)NC(=O)[C@H](CCC(=O)O)NC(=O)[C@@H]2C[C@@H](O)CN2C(=O)[C@H](Cc2c[nH]c3ccc(Cl)cc23)NC(=O)[C@H](Cc2c[nH]c3ccccc23)NC(=O)[C@H](CC(=O)O)NC(C)=O)CSCc2cccc(n2)CSC[C@@H](C(N)=O)NC1=O

Target: human Gastric Inhibitory Peptide Receptor (GIPR) (human) (UniProt P48546)
Assay: FACS competition vs biotinylated GIP-057 on CHO-K1-hGIPR cells; category A: pIC50 >8.0

Chain of human Gastric Inhibitory Peptide Receptor (GIPR) (human) (P48546 22-466 limits assumed): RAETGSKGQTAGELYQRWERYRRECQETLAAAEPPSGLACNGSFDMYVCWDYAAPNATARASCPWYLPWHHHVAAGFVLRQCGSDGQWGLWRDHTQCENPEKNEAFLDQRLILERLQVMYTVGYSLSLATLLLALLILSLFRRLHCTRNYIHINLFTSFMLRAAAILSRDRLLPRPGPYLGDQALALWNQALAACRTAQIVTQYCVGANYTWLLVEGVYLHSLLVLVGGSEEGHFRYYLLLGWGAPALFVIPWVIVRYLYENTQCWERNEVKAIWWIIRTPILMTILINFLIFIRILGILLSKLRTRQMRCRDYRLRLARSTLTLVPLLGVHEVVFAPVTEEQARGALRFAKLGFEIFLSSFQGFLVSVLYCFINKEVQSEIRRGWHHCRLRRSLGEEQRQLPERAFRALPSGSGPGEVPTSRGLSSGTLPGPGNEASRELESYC

Binder | pIC50 [pic50]
B1 | > 8
Ac-D[Phe(2,3-Cl2)][Trp(5-Cl)][Hyp]E[dL]C[Thp]LIC-NH2 (linker 7-11 via Pyridine(2,6-diCH2)) [Ac-Asp-Egp-5Clw-Hyp-Glu-leu-[Cys(2Lut)-Thp-Leu-Ile-Cys]-NH2] | > 8
Ac-D[Trp(7-F)][Trp(5-Cl)][Hyp]E[dL]C[Thp]LIC-NH2 (linker 7-11 via Pyridine(2,6-diCH2)) [Ac-Asp-7Fw-5Clw-Hyp-Glu-leu-[Cys(2Lut)-Thp-Leu-Ile-Cys]-NH2] | > 8
Ac-DW[Trp(5-Cl)][Hyp][dE]LC[Thp]LIC-NH2 (linker 7-11 via Pyridine(2,6-diCH2)) [Ac-Asp-Trp-5Clw-Hyp-glu-Leu-[Cys(2Lut)-Thp-Leu-Ile-Cys]-NH2] | > 8
B2 | > 8
B3 | > 8
B4 | > 8
Ac-DW[Trp(5-Cl)][Hyp]E[dL]C[Thp]LIC-NH2 (linker 7-11 via mli) [Ac-Asp-Trp-5Clw-Hyp-Glu-leu-[Cys(mli)-Thp-Leu-Ile-Cys]-NH2] | > 8
Ac-DW[Trp(5-Cl)][Thz]E[dL]C[Thp]LIC-NH2 (linker 7-11 via Pyridine(2,6-diCH2)) [Ac-Asp-Trp-5Clw-Eaz-Glu-leu-[Cys(2Lut)-Thp-Leu-Ile-Cys]-NH2] | > 8
{AGLU-Glutaryl}-DW[Trp(5-Cl)][Pro(trans-4-NH2)]E[dL]C[αMeK](DOTA)LIC-{APAc-dE(AGLU)-NH2} (linker 7-11 via Pyridine(2,6-diCH2)) [AGLU-Glutar-Asp-Trp-5Clw-Tap-Glu-leu-[Cys(2Lut)-Amk(DOTA)-Leu-Ile-Cys]-APAc-glu(AGLU)-NH2] | > 8
Ac-DW[Trp(5-Cl)][Pro(trans-4-NH2)]E[dL]C[Thp]LIC-NH2 (linker 7-11 via 2Lut″) [Ac-Asp-Trp-5Clw-Tap-Glu-leu-[Cys(2Lut)-Thp-Leu-Ile-Cys]-NH2] | > 8
Ac-D[Trp(5-F)][Trp(5-Cl)][Hyp]E[dL]C[Thp]LIC-NH2 (linker 7-11 via Pyridine(2,6-diCH2)) [Ac-Asp-5Fw-5Clw-Hyp-Glu-leu-[Cys(2Lut)-Thp-Leu-Ile-Cys]-NH2] | > 8
B5 | > 8
Ac-DW[Trp(7-F)][Hyp]E[dL]C[Thp]LIC-NH2 (linker 7-11 via 2Lut″) [Ac-Asp-Trp-7Fw-Hyp-Glu-leu-[Cys(2Lut)-Thp-Leu-Ile-Cys]-NH2] | > 8
Ac-DW[Trp(5-Cl)][Hyp]E[dL]C[Thp]LI[hCys]-NH2 (linker 7-11 via mli) [Ac-Asp-Trp-5Clw-Hyp-Glu-leu-[Cys(mli)-Thp-Leu-Ile-Hcy]-NH2] | > 8
B6 | > 8
B7 | > 8
B8 | > 8
Ac-DF[Trp(5-Cl)][Hyp]E[dL]C[Thp]LIC-NH2 (linker 7-11 via Pyridine(2,6-diCH2)) [Ac-Asp-Phe-5Clw-Hyp-Glu-leu-[Cys(2Lut)-Thp-Leu-Ile-Cys]-NH2] | > 8
Ac-D[Trp(5-Cl)][Trp(5-Cl)][Hyp]E[dL]C[Thp]LIC-NH2 (linker 7-11 via Pyridine(2,6-diCH2)) [Ac-Asp-5Clw-5Clw-Hyp-Glu-leu-[Cys(2Lut)-Thp-Leu-Ile-Cys]-NH2] | > 8
B9 | > 8
B10 | > 8
Ac-[dD]W[Trp(5-Cl)][Hyp]E[dL]C[Thp]LIC-NH2 (linker 7-11 via Pyridine(2,6-diCH2)) [Ac-asp-Trp-5Clw-Hyp-Glu-leu-[Cys(2Lut)-Thp-Leu-Ile-Cys]-NH2] | > 8
{AGLU-Glutaryl}-DW[Trp(5-Cl)][Pro(trans-4-NH2)]E[dL]C[Api](DO3AM)LIC-{APAc-dE(AGLU)-NH2} (linker 7-11 via Pyridine(2,6-diCH2)) [AGLU-Glutar-Asp-Trp-5Clw-Tap-Glu-leu-[Cys(2Lut)-Apc(DOTAM)-Leu-Ile-Cys]-APAc-glu(AGLU)-NH2] | > 8
B11 | > 8
